Measurements as given in US20260241049A1, “Radiopharmaceutical Compositions Targeting Glypican-3 and Uses Thereof” (RayzeBio, Inc., priority 2023, published 2026).
Starred links: 1 amine or outer side, 2 acyl side, 3 side chain; linkers in the order of their positions; H or OH if unused. Positions of bridges follow the written chain, without caps; N, C: chain ends. Non-standard residues stand in square brackets, D forms with d. Groups on a side chain read outwards from the residue. Primed or numbered codes have the meaning given here. *: point of attachment. MeKCOpipzaa″ = (2S)-6-{[4-(carboxymethyl)piperazine-1-carbonyl]amino}-2-(methylamino)hexanoic acid, CN([C@@H](CCCCNC(=O)N1CCN(CC(=O)[*:3])CC1)C(=O)[*:2])[*:1]; MeA4paa = 3-(1-(carboxymethyl)piperidin-4-yl)-2-(methylamino)propanoic acid, CN([C@@H](CC1CCN(CC(=O)[*:3])CC1)C(=O)[*:2])[*:1]; MeHseMe(3) = N-methyl-O-methyl-homoserine, 4-methoxy-2-(methylamino)butanoic acid, COCC[C@@H](C(=O)[*:2])N(C)[*:1]; F4aao″ = 2-amino-3-(4-(carboxymethoxy)phenyl)propanoic acid, O=C([C@H](Cc1ccc(OCC(=O)[*:3])cc1)N[*:1])[*:2]; TMe(3) = O-methyl-L-threonine ((2S,3R)-2-amino-3-methoxybutanoic acid), CO[C@H](C)[C@H](N[*:1])C(=O)[*:2]; Hgn = 2,6-diamino-6-oxohexanoic acid, NC(=O)CCC[C@H](N[*:1])C(=O)[*:2]; Phe(4-(1-Me-pyrazol-4-yl)) = Cn1cc(-c2ccc(C[C@H](N)C(=O)O)cc2)cn1; TMe = O-methyl-L-threonine, CO[C@H](C)[C@H](N[*:1])C(=O)[*:2]; NMeAla(isoquinolin-7-yl) = CN[C@@H](Cc1ccc2ccncc2c1)C(=O)O; PEG12 = NCCOCCOCCOCCOCCOCCOCCOCCOCCOCCOCCOCCOCCC(=O)O; Phe(4-CH2COOH) = N[C@@H](Cc1ccc(CC(=O)O)cc1)C(=O)O; 3Pal(6-Ph) = N[C@@H](Cc1ccc(-c2ccccc2)nc1)C(=O)O; Biotin = O=C1N[C@H]2[C@H](CS[C@H]2CCCCC(=O)*)N1; Phe(4-COOH) = N[C@@H](Cc1ccc(C(=O)O)cc1)C(=O)O; NMe2Nal = CN[C@@H](Cc1ccc2ccccc2c1)C(=O)O; AEF = NCCOc1ccc(C[C@H](N)C(=O)O)cc1; NMeY = CN[C@@H](Cc1ccc(O)cc1)C(=O)O; NMeI = CC[C@H](C)[C@H](NC)C(=O)O; NMeQ = CN[C@@H](CCC(N)=O)C(=O)O; NMeK = CN[C@@H](CCCCN)C(=O)O; NMeC = CN[C@@H](CS)C(=O)O; NMeA = CN[C@@H](C)C(=O)O; MeK = methyl-L-lysine

Target: T1, Human Glypican3-Fc (ACRO Biosystems, GP3-H5258) (human, UniProt P51654 25-559)
T1 construct: Bought fusion protein, captured in Methods B-2, B-3 and B-4; Catalogue number is printed only in Method B-2; not shown: Fc part of the bought fusion
Assay: SPR (Biacore T200), Method B-3: Glypican3-Fc captured on Protein A chip, peptide as analyte
Experimental: A Protein A sensor chip (Cytiva) was inserted into a Biacore T200 (Cytiva), priming was performed three times with a running buffer: HBS-P+, pH 7.4 (Cytiva), and equilibration was carried out at a flow rate of 30 μL/min. Glypican3-Fc was allowed to react for 60 seconds at a flow rate of 10 μL/min. After capturing human Glypican3-Fe, a peptide solution prepared to 10 mM in DMSO solution was diluted with a running buffer to a final concentration of 10 μM. […] Using the above samples, peptide kinetics for Glypican3 was obtained by SPR measurement. Kinetics evaluation of Glypican3 was performed by SPR measurements at a flow rate of 10 LL/min, setting the association time to 120 seconds and the disassociation time to 600 seconds.
The obtained data by Method B-1, Method B-2, Method B-3 and Method B-4 were analyzed by follow. Single Cycle Kinetics was used as the kinetics evaluation model, and curve fitting was performed using Biacore T200 Evaluation Software Version 3.0 (Cytiva).

Kd [nM]	Binder
1	{CH2CO}-[NMeQ][NMeQ]D[NMeQ][Phe(4-COOH)]II[AEF][NMe2Nal]G[Phe(4-(1-Me-pyrazol-4-yl))][NMeC]-NH2 (thioether N-12; SMILES CC[C@H](C)[C@@H]1NC(=O)[C@H](Cc2ccc(C(=O)O)cc2)NC(=O)[C@H](CCC(N)=O)N(C)C(=O)[C@H](CC(=O)O)NC(=O)[C@H](CCC(N)=O)N(C)C(=O)[C@H](CCC(N)=O)N(C)C(=O)CSC[C@@H](C(N)=O)N(C)C(=O)[C@H](Cc2ccc(-c3cnn(C)c3)cc2)NC(=O)CNC(=O)[C@H](Cc2ccc3ccccc3c2)N(C)C(=O)[C@H](Cc2ccc(OCCN)cc2)NC(=O)[C@H]([C@@H](C)CC)NC1=O) [Macrocyclic peptide of Example 2-53 (SEQ ID No. 28)]
0.2	{CH2CO}-[MeK][NMeI]Q[NMeQ][Phe(4-COOH)]II[Phe(4-COOH)][NMe2Nal]G[Phe(4-(1-Me-pyrazol-4-yl))][NMeC]-NH2 (thioether N-12) [Macrocyclic peptide of Example 2-46 (SEQ ID No. 6)]
1.53	{CH2CO}-[NMeQ][NMeQ]D[NMeQ][Phe(4-COOH)]II[AEF]([PEG12-Biotin])[NMe2Nal]G[Phe(4-(1-Me-pyrazol-4-yl))][NMeC]-NH2 (thioether N-12; SMILES CC[C@H](C)[C@@H]1NC(=O)[C@H](Cc2ccc(C(=O)O)cc2)NC(=O)[C@H](CCC(N)=O)N(C)C(=O)[C@H](CC(=O)O)NC(=O)[C@H](CCC(N)=O)N(C)C(=O)[C@H](CCC(N)=O)N(C)C(=O)CSC[C@@H](C(N)=O)N(C)C(=O)[C@H](Cc2ccc(-c3cnn(C)c3)cc2)NC(=O)CNC(=O)[C@H](Cc2ccc3ccccc3c2)N(C)C(=O)[C@H](Cc2ccc(OCCNC(=O)CCOCCOCCOCCOCCOCCOCCOCCOCCOCCOCCOCCOCCNC(=O)CCCC[C@@H]3SC[C@@H]4NC(=O)N[C@@H]43)cc2)NC(=O)[C@H]([C@@H](C)CC)NC1=O) [PLB-28]
9.3	{CH2CO}-[NMeK][NMeI]D[NMeQ][Phe(4-COOH)][TMe]I[F4aao″][NMeAla(isoquinolin-7-yl)]G[3Pal(6-Ph)][NMeC]E-NH2 (thioether N-12; SMILES CC[C@H](C)[C@@H]1NC(=O)[C@H]([C@@H](C)OC)NC(=O)[C@H](Cc2ccc(C(=O)O)cc2)NC(=O)[C@H](CCC(N)=O)N(C)C(=O)[C@H](CC(=O)O)NC(=O)[C@H]([C@@H](C)CC)N(C)C(=O)[C@H](CCCCN)N(C)C(=O)CSC[C@@H](C(=O)N[C@@H](CCC(=O)O)C(N)=O)N(C)C(=O)[C@H](Cc2ccc(-c3ccccc3)nc2)NC(=O)CNC(=O)[C@H](Cc2ccc3ccncc3c2)N(C)C(=O)[C@H](Cc2ccc(OCC(=O)O)cc2)NC1=O) [Macrocyclic peptide of Example 2-43 (SEQ ID No. 32)]
0.1	{CH2CO}-[MeK][NMeQ][Hgn][NMeQ][Phe(4-COOH)][TMe(3)]IY[NMe2Nal]G[Phe(4-(1-Me-pyrazol-4-yl))][NMeC]-NH2 (thioether N-12) [Macrocyclic peptide of Example 2-54 (SEQ ID No. 29)]
1.6	{CH2CO}-[NMeQ][NMeQ]D[MeK][Phe(4-COOH)]II[Phe(4-CH2COOH)][NMe2Nal]G[Phe(4-(1-Me-pyrazol-4-yl))][NMeC]-NH2 (thioether N-12) [Macrocyclic peptide of Example 2-52 (SEQ ID No. 26)]
21.5	{CH2CO}-[NMeA][NMeY]DY[TMe]IY[NMe2Nal]G[3Pal(6-Ph)][NMeC]-NH2 (thioether N-11; SMILES CC[C@H](C)[C@@H]1NC(=O)[C@H]([C@@H](C)OC)NC(=O)[C@H](Cc2ccc(O)cc2)NC(=O)[C@H](CC(=O)O)NC(=O)[C@H](Cc2ccc(O)cc2)N(C)C(=O)[C@H](C)N(C)C(=O)CSC[C@@H](C(N)=O)N(C)C(=O)[C@H](Cc2ccc(-c3ccccc3)nc2)NC(=O)CNC(=O)[C@H](Cc2ccc3ccccc3c2)N(C)C(=O)[C@H](Cc2ccc(O)cc2)NC1=O, 11 residues) [Macrocyclic peptide of Example 2-40 (SEQ ID No. 66)]
5.3	{CH2CO}-[MeKCOpipzaa″][NMeA]D[NMeY][Phe(4-COOH)][TMe]I[AEF][NMeY]G[3Pal(6-Ph)][NMeC]-NH2 (thioether N-12; SMILES CC[C@H](C)[C@@H]1NC(=O)[C@H]([C@@H](C)OC)NC(=O)[C@H](Cc2ccc(C(=O)O)cc2)NC(=O)[C@H](Cc2ccc(O)cc2)N(C)C(=O)[C@H](CC(=O)O)NC(=O)[C@H](C)N(C)C(=O)[C@H](CCCCNC(=O)N2CCN(CC(=O)O)CC2)N(C)C(=O)CSC[C@@H](C(N)=O)N(C)C(=O)[C@H](Cc2ccc(-c3ccccc3)nc2)NC(=O)CNC(=O)[C@H](Cc2ccc(O)cc2)N(C)C(=O)[C@H](Cc2ccc(OCCN)cc2)NC1=O) [Macrocyclic peptide of Example 2-55 (SEQ ID No. 56)]
7.9	{CH2CO}-[NMeQ][NMeQ]D[NMeQ][AEF]II[Phe(4-CH2COOH)][NMe2Nal]G[Phe(4-(1-Me-pyrazol-4-yl))][NMeC]-NH2 (thioether N-12; SMILES CC[C@H](C)[C@@H]1NC(=O)[C@H](Cc2ccc(OCCN)cc2)NC(=O)[C@H](CCC(N)=O)N(C)C(=O)[C@H](CC(=O)O)NC(=O)[C@H](CCC(N)=O)N(C)C(=O)[C@H](CCC(N)=O)N(C)C(=O)CSC[C@@H](C(N)=O)N(C)C(=O)[C@H](Cc2ccc(-c3cnn(C)c3)cc2)NC(=O)CNC(=O)[C@H](Cc2ccc3ccccc3c2)N(C)C(=O)[C@H](Cc2ccc(CC(=O)O)cc2)NC(=O)[C@H]([C@@H](C)CC)NC1=O) [Macrocyclic peptide of Example 2-56 (SEQ ID No. 27)]
0.2	{CH2CO}-[MeK][MeHseMe(3)]D[NMeQ][Phe(4-COOH)]II[Phe(4-CH2COOH)][NMe2Nal]G[3Pal(6-Ph)][NMeC]-NH2 (thioether N-12) [Macrocyclic peptide of Example 2-47 (SEQ ID No. 21)]
2.5	{CH2CO}-[MeK][NMeQ]D[MeA4paa][Phe(4-COOH)][TMe(3)]I[Phe(4-CH2COOH)][NMe2Nal]G[Phe(4-(1-Me-pyrazol-4-yl))][NMeC]-NH2 (thioether N-12) [Macrocyclic peptide of Example 2-51 (SEQ ID No. 25)]
3.2	{CH2CO}-[NMeK][NMeI]D[NMeQ][Phe(4-COOH)][TMe]I[F4aao″][NMeAla(isoquinolin-7-yl)]G[3Pal(6-Ph)][NMeC][dE]-NH2 (thioether N-12; SMILES CC[C@H](C)[C@@H]1NC(=O)[C@H]([C@@H](C)OC)NC(=O)[C@H](Cc2ccc(C(=O)O)cc2)NC(=O)[C@H](CCC(N)=O)N(C)C(=O)[C@H](CC(=O)O)NC(=O)[C@H]([C@@H](C)CC)N(C)C(=O)[C@H](CCCCN)N(C)C(=O)CSC[C@@H](C(=O)N[C@H](CCC(=O)O)C(N)=O)N(C)C(=O)[C@H](Cc2ccc(-c3ccccc3)nc2)NC(=O)CNC(=O)[C@H](Cc2ccc3ccncc3c2)N(C)C(=O)[C@H](Cc2ccc(OCC(=O)O)cc2)NC1=O) [Macrocyclic peptide of Example 2-42 (SEQ ID No. 31)]
0.5	{CH2CO}-[MeK][MeHseMe(3)]D[NMeQ][Phe(4-COOH)]II[Phe(4-CH2COOH)][NMe2Nal]G[Phe(4-(1-Me-pyrazol-4-yl))][NMeC]-NH2 (thioether N-12) [Macrocyclic peptide of Example 2-48 (SEQ ID No. 22)]
